Laboratory results from the nanobody polyreactivity screen of Harvey et al. (2022).

Assay: yeast display, Sf9 membrane polyspecificity reagent, FACS + sequencing; frameworks hold sequencing errors
How it was run: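 A nanobody's polyreactivity label depends on the gate it was sorted from. Yeast display cells were stained with 10% biotinylated, detergent-solubilized Sf9 membrane reagent for 1 hour at 4 °C, enriched on streptavidin microbeads and sorted by FACS. The low and high (top ~1%) gates were set on anti-HA fluorescence for expression and streptavidin fluorescence for reagent binding.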

Row | Sequence | polyreactivity (PSR sort gate)
1 | QVQLVESGGGLVQAGGSLRLSCDASGRTFGYYAMGWYRHAPGQERELVAGIRSSGGSTYYADSVKGRFTISRDNAKNTVYLQMNSLKPEDTAVYYCAARLRSYHYRYGYDYWGQGTQVTVSS | high polyreactivity
2 | QVQLVESGGGLVQAGGSLRLSCAASGFTFAWYAMGWYRQAPGKERELVAAISWSGGRTYYADSVKGRFTISRDNAKNTVYLQMNSLKPEDTAVYYCAALFLYGYVREYDYWGQGTQVTVSS | high polyreactivity
3 | QVQLVESGVGLVQAGGSLRLSCAASGFIFPTNTMGWYRQAPGKEREFVARITRSGTNTYYADSVKGRFTISRDNAKNTVYLQMNSLKPEDTAVYYCATRYYHFNYWGQATQVTVSS | high polyreactivity
4 | QVQLVESGGVLVQPGCILRLSCAASGRIYWYYAMGWYRQAPGKERELVAAISRSRGSTYYADSVKGRFTISRDNEKNTVYLQMNSLKPEDTAVYYCAAGARAFDDDYWGQGTQVTVSS | low polyreactivity
5 | QVQLVESGGGLVQAGGSLRLSCAASGRTFRWNAIGWYRQAPGKERELVASISSGGRTNYADSVKVRFTISRDNEKNTVYLQMNSLKPEDTAVYYCAKRVSWPQLYDYWGQGTQVTVSS | high polyreactivity
6 | QVQLVESGGGLVQAGGSLRLSCAASGRTFYIYAMGWYRQAPGKERELVAAITYGGGRTFYADSVKGRFTISRDNAKNTVYLQMNSLKPEDTAVYYCAATVRGKRSTYDYWGQGTQVTVSS | high polyreactivity
7 | QVQLVESGGGLVQAGGSLRLSCAASGGIFNYYVMGWYRQAPGIERELVAAISNGGSPNYADSVKGRFTISRDNAKNPVYLQMNSLKPEDTAVYYCAAHTYSELSWLVVYPYDYWGQGTQVTVSS | low polyreactivity
8 | QVQRVESGGGLVQAGGSLRLSCAASGRIFQVYAMGWSRPAPGKERELVAAITWSGGSSYADSVKGRFTISRDNAKNTVFLQMNSLKPEDTAVYYCAAPFYYYGVRFDYRGQGTQVTVSS | high polyreactivity
9 | QVQLVESGGGLVQAGGSLRLSCAASGLNFYYYAMGWYRQAPGKERELVATISSRGGSTNYADSVKGRFTISRDNAKNTVYLQMNSLKPEDTAVYYCAADRRARVWTYRSYDYWGQGTQVTVSS | high polyreactivity
10 | QVQLVESGGGLVQAGGSLRLSCAASGRIFGPYAMGWYRQAPGKDRELVAAISASGGRTYDADSVKGRFTISRDNAKNTVYLQMNSLKPEDTAVYYCARRYWHSGWIFDYWGQGTQVTVSS | high polyreactivity
11 | QVQHVDSGGRLVQAGGRLRLSCAASGRIITYYARGWNRQAPGKERELVAAISGRGGGTYYADSVKGRFTISRDNAKNTVYLQMNSLKPADTAVYYCNAYYSRLRYDYWGQGTQVTVSS | high polyreactivity
12 | QVQLVDSGGGLVQAGGSLRLSCAASGSIYGYYAMGWYRQAPGKELVLVAVITSGATTNYADSLKGRFSISRDNAKNTGYLQMNSLKPEDTAVYYCAARPQVKRGRYGYWGQGTQVTVSS | low polyreactivity
13 | QVQLVESGGGLVQAGGSLRLSCAASGITLVRYAMGWNRKAPGKEREFVASITSGASTNYADSVKGRFTISRYNAKNTVYLQMNSLKPDDTAVYYCAAGPPSGGWWGGWYEYWGQGTQVTVSS | high polyreactivity
14 | QVQLVESGGGLVQAGGSLRLSCAASGRTFGWNAMGWYRQAPGKERELVAAISRTGNTYYADSVKGRFTISRDNAKNTVYLQMNSLKPEDTAVYYCAKGRYYTPTYFRGVDLYDYWGQGTQVTVSS | low polyreactivity
15 | QVQLVESGGGLVQAGGSLRLSCAASGSIFRFNAMGWYRQAPGKERELVAAITSRTYYADSVKGRFTISRDNAKNTVYLQMNSLKPEDTAVYYCAARVQSKYGYWGQGTQVTVSS | high polyreactivity
16 | QVQLVESGGGLVQAGGSLRLSCAACGRIFVYYVMGWYRQAPGKERELVAAISNSGTSTYYADSLKGRFTISRDNAKNTVYLQMNSLKPEDTAVYYCNTVGQRWLSDDDYWGQGTQVTVSS | low polyreactivity

Row | Sequence | polyreactivity (PSR sort gate)
17 | QVQLVESGGGLVQAGGSLRLSCAASGTTFVSNAMGWYRQAPGKERELVAAISKSGGSTYYADSVKGRFTISRDNAKNTVYLQMNSLKPEDTAVYYCAKYTAKSFYGQYDYWGQGTQVTVSS | high polyreactivity
18 | QVQLAESGGGLVQAGGSLRLSCAASGIIFVYNAMGWYIKAPGKERELVAVISFIGDSTYYADSVKGRFTISRDNAKNTVYLQMNSLKPEDTAVYYCAADYYMPYWFFVGYDYWGQGTQVTVSS | low polyreactivity
19 | QVQHVESGGGLVQAGGSLRLSCAASGRTFTYNAMGWYRQAPGKERELVAAISWNGGRTYYADSVKGRFTISRDNAKNTVYLEMNSLKPEETAVYYCNAVSYNLAAYDYWGQGTQVTVSS | high polyreactivity
20 | QVQLVESGGGLVQAGGSLRLSCAASGRIFYFYAMGWYRQAPGKERELVAAIDWSGGSTYYADSVKGRFTISRDNAKNTVYLQMNSLKPEDTAVYSCAARWRSKGVQYYYWGQGSQVTVSS | high polyreactivity
21 | QVQLLEAGGGLVQAGGSLRFSCAHSGSIVSHYAIGWYRQAPGKERELVAAITGGGITYYADSVKGRFTISRDNAKNTVYLQMNSLKPEDTAVDYCDTDSLMFTIYDYWGQGTQVTVSS | low polyreactivity
22 | QVQLVESGGGLVQAGGSLRLSCAASGFIFGANAMGWYRPAPGKESELVAAISWNGGRTYYADSVKWRFTISRDNAKNTVYLQMNSLKPEDTAVSYCAATGWYGLPTSYRVNYWGQGTQVTVSS | high polyreactivity
23 | QVQLVESGGGLVQAGGSLRLSCAASGSIFYHYAMGWYRQAPGKERELVAAISQSGGGTYYADSVKGRFTISRDNAKNTVYLQMNSLKPEDTAVYYCNRLSKQKQEFDYWGQGTQVTVSS | high polyreactivity
24 | QVQLVESGGGLVQAGGSLRLSCAASGFTFWAYAMGWYRHAPGKEMEVVAAISKTGGRTYYADSVKGRFTISRDNAKNNDYLQINSLKPEDTAVYYCAVDITGLYYPVDYWGQGTQVTVSS | high polyreactivity
25 | QVQLVESGGGLVQAGGSLRLSCAASGFTFRWYTMGWYRQAPGKEREFVAAISSSGGSTYYADSVKGRFTISRDNAKNTVYLQMKSLKPEDTAVYYCARASRGYTYEYWGQGTQVTVSS | high polyreactivity
26 | QVQLVESGGGLVQAGGSLRLSCAASGLTFTSYAMGWYRQAPGKERELVAAIDWSGGRTYYADSVKGRFTISRDNAKNTVYLQMNSLKPEDTAVYYCAAYSRNRSLRFNYWGQGTQVTVSS | high polyreactivity
27 | QVQLVESGGGLVQAGGSLRLSCAASGRTFGYYAMGWYRQAPGKVRELVASISSSGGNTYYADSVKGRFTISRDNAKNNVYLQMNSLKPEDTAVYYCAATYGWWPRDYYYWGQGTQVTVSS | high polyreactivity
28 | QVQLVESGGGLVQAGGSLRSSCAASGYTFRYYAMGWSRQAPGKERELVAAITSSSNTTYADSVKGRFTISRDNEKNTVYLQMNSLKPDDTGVYYCNTPYFTGYYWGQGTQVTVSS | high polyreactivity
29 | QVQLVESGGGLVQAGGSLRLSCAASGSTFDLYAMGWCRQAPGKEREWVAAITWSGDDTYYADSVKGRFTISRDNATNTVYLQMNSLKPEDTAVYYCAAAYAYWGQGTQVTVSS | low polyreactivity
30 | QGQLVESGGGLVQAGGSLRLSCAASGSTFTSSAMGWSRQGPGKERELVAAISRSGGRTYYADSVKGRFTISRDNAKTTVYLQMNSQKPEDTAVYYCAADRSRWGQGTQVTVSS | high polyreactivity
31 | QVQLVESGGGLVQAGGSLRLSCAASGRTFYANLMGWYRQAPGKERELVAAITYSGGSTYYADSVKGRFTISRDNATITVYLPMSSLKPEDTAVYYCAADNVSTFYYWGQGTQVTVSS | low polyreactivity
32 | QVQLVDSGGGLVQAGGSLRLSCAASVRIFYEYAMGWYRKAPGKERQFVASISRTDGGTYYADSVKGRFTISRDNAKNTVYLQMNSLKPEENAVYYCATRAYYNTEVYYWGQGTQVTVSS | high polyreactivity
